Measurements taken from patent US20110263827A1 (AbbVie / Abbott, published 2011).

How the values were obtained:
[1] = target: T1, EGFR (UniProt P00533 25-645, limits assumed, biotinylated); test: direct bind ELISA, N-term VD;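 also: antibody or DVD-Ig preparations bound to immobilized target antigen on ELISA plates, 1 h at room temperature, TMB detection read as absorbance at 450 nm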
T1 construct: ELISA antigen; construct not described

[2] = target: T2, VEGF (UniProt P15692-4 27-191, limits assumed, biotinylated); test: direct bind ELISA, C-term VD;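 also: ELISA with antibody or DVD-Ig preparations applied to target antigen-coated plates for 1 h at room temperature, TMB colour development, absorbance read at 450 nm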
T2 construct: ELISA antigen

[3] = target: T2, VEGF; test: direct bind ELISA, N-term VD;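 also: antibody or DVD-Ig preparations bound to immobilized target antigen on ELISA plates, 1 h at room temperature, TMB detection read as absorbance at 450 nm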
[4] = target: T1, EGFR; test: direct bind ELISA, C-term VD;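 also: ELISA with antibody or DVD-Ig preparations applied to target antigen-coated plates for 1 h at room temperature, TMB colour development, absorbance read at 450 nm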

Row | Binder | EC50 [1] [nM] | EC50 [2] [nM] | EC50 [3] [nM] | EC50 [4] [nM]
1 | DVD757 (bispecific antibody, DVD-Ig; HC S, LC S; variable parts only) VH: QVQLQESGPGLVKPSQTLSLTCTVSGYSISSDFAWNWIRQPPGKGLEWMGYISYSGNTRYQPSLKSRITISRDTSKNQFFLKLNSVTAADTATYYCVTAGRGFPYWGQGTLVTVSSASTKGPEVQLVESGGGLVQPGGSLRLSCAASGFTISDYWIHWVRQAPGKGLEWVAGITPAGGYTYYADSVKGRFTISADTSKNTAYLQMNSLRAEDTAVYYCARFVFFLPYAMDYWGQGTLVTVSS VL: DIQMTQSPSSMSVSVGDRVTITCHSSQDINSNIGWLQQKPGKSFKGLIYHGTNLDDGVPSRFSGSGSGTDYTLTISSLQPEDFATYYCVQYAQFPWTFGGGTKLEIKRTVAAPDIQMTQSPSSLSASVGDRVTITCRASQDVSTAVAWYQQKPGKAPKLLIYSASFLYSGVPSRFSGSGSGTDFTLTISSLQPEDFATYYCQQSYTTPPTFGQGTKVEIKR | 14.5 | 528 |  | 
2 | DVD759 (bispecific antibody, DVD-Ig; HC S, LC S; variable parts only) VH: QVQLQESGPGLVKPSQTLSLTCTVSGYSISSDFAWNWIRQPPGKGLEWMGYISYSGNTRYQPSLKSRITISRDTSKNQFFLKLNSVTAADTATYYCVTAGRGFPYWGQGTLVTVSSASTKGPEVQLVESGGGLVQPGGSLRLSCAASGFTINASWIHWVRQAPGKGLEWVGAIYPYSGYTNYADSVKGRFTISADTSKNTAYLQMNSLRAEDTAVYYCARWGHSTSPWAMDYWGQGTLVTVSS VL: DIQMTQSPSSMSVSVGDRVTITCHSSQDINSNIGWLQQKPGKSFKGLIYHGTNLDDGVPSRFSGSGSGTDYTLTISSLQPEDFATYYCVQYAQFPWTFGGGTKLEIKRTVAAPDIQMTQSPSSLSASVGDRVTITCRASQVIRRSLAWYQQKPGKAPKLLIYAASNLASGVPSRFSGSGSGTDFTLTISSLQPEDFATYYCQQSNTSPLTFGQGTKVEIKR | 7.01 | 128 |  | 
3 | DVD792 (bispecific antibody, DVD-Ig; HC L, LC L; variable parts only) VH: EVQLVESGGGLVQPGGSLRLSCAASGFTINASWIHWVRQAPGKGLEWVGAIYPYSGYTNYADSVKGRFTISADTSKNTAYLQMNSLRAEDTAVYYCARWGHSTSPWAMDYWGQGTLVTVSSASTKGPSVFPLAPQVQLQESGPGLVKPSQTLSLTCTVSGYSISSDFAWNWIRQPPGKGLEWMGYISYSGNTRYQPSLKSRITISRDTSKNQFFLKLNSVTAADTATYYCVTAGRGFPYWGQGTLVTVSS VL: DIQMTQSPSSLSASVGDRVTITCRASQVIRRSLAWYQQKPGKAPKLLIYAASNLASGVPSRFSGSGSGTDFTLTISSLQPEDFATYYCQQSNTSPLTFGQGTKVEIKRTVAAPSVFIFPPDIQMTQSPSSMSVSVGDRVTITCHSSQDINSNIGWLQQKPGKSFKGLIYHGTNLDDGVPSRFSGSGSGTDYTLTISSLQPEDFATYYCVQYAQFPWTFGGGTKLEIKR |  |  | 0.82 | 48.6
4 | DVD822 (bispecific antibody, DVD-Ig; HC L, LC S; variable parts only) VH: EVQLVESGGGLVQPGGSLRLSCAASGFTINASWIHWVRQAPGKGLEWVGAIYPYSGYTNYADSVKGRFTISADTSKNTAYLQMNSLRAEDTAVYYCARWGHSTSPWAMDYWGQGTLVTVSSASTKGPSVFPLAPQVQLQESGPGLVKPSQTLSLTCTVSGYSISSDFAWNWIRQPPGKGLEWMGYISYSGNTRYQPSLKSRITISRDTSKNQFFLKLNSVTAADTATYYCVTAGRGFPYWGQGTLVTVSS VL: DIQMTQSPSSLSASVGDRVTITCRASQVIRRSLAWYQQKPGKAPKLLIYAASNLASGVPSRFSGSGSGTDFTLTISSLQPEDFATYYCQQSNTSPLTFGQGTKVEIKRTVAAPDIQMTQSPSSMSVSVGDRVTITCHSSQDINSNIGWLQQKPGKSFKGLIYHGTNLDDGVPSRFSGSGSGTDYTLTISSLQPEDFATYYCVQYAQFPWTFGGGTKLEIKR |  |  | 0.72 | 90
5 | DVD852 (bispecific antibody, DVD-Ig; HC S, LC L; variable parts only) VH: EVQLVESGGGLVQPGGSLRLSCAASGFTINASWIHWVRQAPGKGLEWVGAIYPYSGYTNYADSVKGRFTISADTSKNTAYLQMNSLRAEDTAVYYCARWGHSTSPWAMDYWGQGTLVTVSSASTKGPQVQLQESGPGLVKPSQTLSLTCTVSGYSISSDFAWNWIRQPPGKGLEWMGYISYSGNTRYQPSLKSRITISRDTSKNQFFLKLNSVTAADTATYYCVTAGRGFPYWGQGTLVTVSS VL: DIQMTQSPSSLSASVGDRVTITCRASQVIRRSLAWYQQKPGKAPKLLIYAASNLASGVPSRFSGSGSGTDFTLTISSLQPEDFATYYCQQSNTSPLTFGQGTKVEIKRTVAAPSVFIFPPDIQMTQSPSSMSVSVGDRVTITCHSSQDINSNIGWLQQKPGKSFKGLIYHGTNLDDGVPSRFSGSGSGTDYTLTISSLQPEDFATYYCVQYAQFPWTFGGGTKLEIKR |  |  | 0.78 | 68.1
6 | DVD780 (bispecific antibody, DVD-Ig; HC L, LC L; variable parts only) VH: EVQLVESGGGLVQPGGSLRLSCAASGYTFTNYGMNWVRQAPGKGLEWVGWINTYTGEPTYAADFKRRFTFSLDTSKSTAYLQMNSLRAEDTAVYYCAKYPHYYGSSHWYFDVWGQGTLVTVSSASTKGPSVFPLAPQVQLQESGPGLVKPSQTLSLTCTVSGYSISSDFAWNWIRQPPGKGLEWMGYISYSGNTRYQPSLKSRITISRDTSKNQFFLKLNSVTAADTATYYCVTAGRGFPYWGQGTLVTVSS VL: DIQMTQSPSSLSASVGDRVTITCSASQDISNYLNWYQQKPGKAPKVLIYFTSSLHSGVPSRFSGSGSGTDFTLTISSLQPEDFATYYCQQYSTVPWTFGQGTKVEIKRTVAAPSVFIFPPDIQMTQSPSSMSVSVGDRVTITCHSSQDINSNIGWLQQKPGKSFKGLIYHGTNLDDGVPSRFSGSGSGTDYTLTISSLQPEDFATYYCVQYAQFPWTFGGGTKLEIKR |  |  | 2.19 | 409
7 | DVD810 (bispecific antibody, DVD-Ig; HC L, LC S; variable parts only) VH: EVQLVESGGGLVQPGGSLRLSCAASGYTFTNYGMNWVRQAPGKGLEWVGWINTYTGEPTYAADFKRRFTFSLDTSKSTAYLQMNSLRAEDTAVYYCAKYPHYYGSSHWYFDVWGQGTLVTVSSASTKGPSVFPLAPQVQLQESGPGLVKPSQTLSLTCTVSGYSISSDFAWNWIRQPPGKGLEWMGYISYSGNTRYQPSLKSRITISRDTSKNQFFLKLNSVTAADTATYYCVTAGRGFPYWGQGTLVTVSS VL: DIQMTQSPSSLSASVGDRVTITCSASQDISNYLNWYQQKPGKAPKVLIYFTSSLHSGVPSRFSGSGSGTDFTLTISSLQPEDFATYYCQQYSTVPWTFGQGTKVEIKRTVAAPDIQMTQSPSSMSVSVGDRVTITCHSSQDINSNIGWLQQKPGKSFKGLIYHGTNLDDGVPSRFSGSGSGTDYTLTISSLQPEDFATYYCVQYAQFPWTFGGGTKLEIKR |  |  | 0.33 | 228
8 | DVD840 (bispecific antibody, DVD-Ig; HC S, LC L; variable parts only) VH: EVQLVESGGGLVQPGGSLRLSCAASGYTFTNYGMNWVRQAPGKGLEWVGWINTYTGEPTYAADFKRRFTFSLDTSKSTAYLQMNSLRAEDTAVYYCAKYPHYYGSSHWYFDVWGQGTLVTVSSASTKGPQVQLQESGPGLVKPSQTLSLTCTVSGYSISSDFAWNWIRQPPGKGLEWMGYISYSGNTRYQPSLKSRITISRDTSKNQFFLKLNSVTAADTATYYCVTAGRGFPYWGQGTLVTVSS VL: DIQMTQSPSSLSASVGDRVTITCSASQDISNYLNWYQQKPGKAPKVLIYFTSSLHSGVPSRFSGSGSGTDFTLTISSLQPEDFATYYCQQYSTVPWTFGQGTKVEIKRTVAAPSVFIFPPDIQMTQSPSSMSVSVGDRVTITCHSSQDINSNIGWLQQKPGKSFKGLIYHGTNLDDGVPSRFSGSGSGTDYTLTISSLQPEDFATYYCVQYAQFPWTFGGGTKLEIKR |  |  | 0.18 | 69.8
9 | DVD790 (bispecific antibody, DVD-Ig; HC L, LC L; variable parts only) VH: EVQLVESGGGLVQPGGSLRLSCAASGFTISDYWIHWVRQAPGKGLEWVAGITPAGGYTYYADSVKGRFTISADTSKNTAYLQMNSLRAEDTAVYYCARFVFFLPYAMDYWGQGTLVTVSSASTKGPSVFPLAPQVQLQESGPGLVKPSQTLSLTCTVSGYSISSDFAWNWIRQPPGKGLEWMGYISYSGNTRYQPSLKSRITISRDTSKNQFFLKLNSVTAADTATYYCVTAGRGFPYWGQGTLVTVSS VL: DIQMTQSPSSLSASVGDRVTITCRASQDVSTAVAWYQQKPGKAPKLLIYSASFLYSGVPSRFSGSGSGTDFTLTISSLQPEDFATYYCQQSYTTPPTFGQGTKVEIKRTVAAPSVFIFPPDIQMTQSPSSMSVSVGDRVTITCHSSQDINSNIGWLQQKPGKSFKGLIYHGTNLDDGVPSRFSGSGSGTDYTLTISSLQPEDFATYYCVQYAQFPWTFGGGTKLEIKR |  |  | 15.9 | 76.8
10 | DVD850 (bispecific antibody, DVD-Ig; HC S, LC L; variable parts only) VH: EVQLVESGGGLVQPGGSLRLSCAASGFTISDYWIHWVRQAPGKGLEWVAGITPAGGYTYYADSVKGRFTISADTSKNTAYLQMNSLRAEDTAVYYCARFVFFLPYAMDYWGQGTLVTVSSASTKGPQVQLQESGPGLVKPSQTLSLTCTVSGYSISSDFAWNWIRQPPGKGLEWMGYISYSGNTRYQPSLKSRITISRDTSKNQFFLKLNSVTAADTATYYCVTAGRGFPYWGQGTLVTVSS VL: DIQMTQSPSSLSASVGDRVTITCRASQDVSTAVAWYQQKPGKAPKLLIYSASFLYSGVPSRFSGSGSGTDFTLTISSLQPEDFATYYCQQSYTTPPTFGQGTKVEIKRTVAAPSVFIFPPDIQMTQSPSSMSVSVGDRVTITCHSSQDINSNIGWLQQKPGKSFKGLIYHGTNLDDGVPSRFSGSGSGTDYTLTISSLQPEDFATYYCVQYAQFPWTFGGGTKLEIKR |  |  | 10.2 | 71.8
11 | DVD820 (bispecific antibody, DVD-Ig; HC L, LC S; variable parts only) VH: EVQLVESGGGLVQPGGSLRLSCAASGFTISDYWIHWVRQAPGKGLEWVAGITPAGGYTYYADSVKGRFTISADTSKNTAYLQMNSLRAEDTAVYYCARFVFFLPYAMDYWGQGTLVTVSSASTKGPSVFPLAPQVQLQESGPGLVKPSQTLSLTCTVSGYSISSDFAWNWIRQPPGKGLEWMGYISYSGNTRYQPSLKSRITISRDTSKNQFFLKLNSVTAADTATYYCVTAGRGFPYWGQGTLVTVSS VL: DIQMTQSPSSLSASVGDRVTITCRASQDVSTAVAWYQQKPGKAPKLLIYSASFLYSGVPSRFSGSGSGTDFTLTISSLQPEDFATYYCQQSYTTPPTFGQGTKVEIKRTVAAPDIQMTQSPSSMSVSVGDRVTITCHSSQDINSNIGWLQQKPGKSFKGLIYHGTNLDDGVPSRFSGSGSGTDYTLTISSLQPEDFATYYCVQYAQFPWTFGGGTKLEIKR |  |  | 4.08 | 107
